Experimental data: doi:10.1101/2022.09.07.507039

Legend:
[1] = target: recombinant Gli123 (Mycoplasma mobile); assay: SEC-SAXS
[2] = target: native Gli123 protein (Mycoplasma mobile); assay: SEC
[3] = target: native Gli123 protein (Mycoplasma mobile); assay: negative-staining EM with single-particle analysis

Substance	stoichiometry N [1]	stoichiometry N [2]	stoichiometry N [3]
recombinant Gli123 (natural protein)	2	–	–
native Gli123 protein (natural protein)	–	2	2
